In US20200399344A1 (SHATTUCK LABS, published 2020):
Where two headings read alike, the source gives them in different places.

T1: recombinant human 2B4 protein (rh2B4-His) (human, UniProt Q9BZW8-2 22-221, limits assumed)
T1 construct: also called recombinant 2B4-His protein; not shown: His tag
T1 sequence (looked up): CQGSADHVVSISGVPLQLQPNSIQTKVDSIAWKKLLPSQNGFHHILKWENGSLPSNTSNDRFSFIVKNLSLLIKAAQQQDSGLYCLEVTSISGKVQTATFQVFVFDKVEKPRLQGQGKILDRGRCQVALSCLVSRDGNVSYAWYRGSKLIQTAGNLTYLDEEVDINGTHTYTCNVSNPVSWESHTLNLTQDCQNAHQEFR

T2: recombinant human SLAMF6-Fc (rhSLAMF6-Fc) protein (human, UniProt Q96DU3 22-226)
T2 construct: not shown: Fc
T2 sequence (looked up): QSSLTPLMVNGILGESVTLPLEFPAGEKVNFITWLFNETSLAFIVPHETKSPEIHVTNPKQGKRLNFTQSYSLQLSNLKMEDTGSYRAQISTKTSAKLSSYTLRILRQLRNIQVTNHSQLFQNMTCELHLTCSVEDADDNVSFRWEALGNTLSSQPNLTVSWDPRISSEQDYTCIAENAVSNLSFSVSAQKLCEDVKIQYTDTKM

T3: hCD2 expressed on CHO-K1/hCD2 cells (human, UniProt P06729 25-351)
T3 construct: whole, on cells
T3 sequence (looked up): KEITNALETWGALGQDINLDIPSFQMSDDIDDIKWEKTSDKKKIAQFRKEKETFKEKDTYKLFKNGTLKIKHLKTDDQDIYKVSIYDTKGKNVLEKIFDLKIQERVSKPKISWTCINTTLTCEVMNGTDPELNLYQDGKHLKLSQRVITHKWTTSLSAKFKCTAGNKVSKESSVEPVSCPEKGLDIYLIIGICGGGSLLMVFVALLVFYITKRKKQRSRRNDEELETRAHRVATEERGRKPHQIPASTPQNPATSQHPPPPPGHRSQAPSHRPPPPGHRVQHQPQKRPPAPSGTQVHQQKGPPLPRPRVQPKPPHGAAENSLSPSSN

B1: recombinant human CD48-Fc (rhCD48-Fc) protein (Fc fusion, UniProt P09326 27-220, looked up)
chain: QGHLVHMTVVSGSNVTLNISESLPENYKQLTWFYTFDQKIVEWDSRKSKYFESKFKGRVRLDPQSGALYISKVQKEDNSTYIMRVLKKTGNEQEWKIKLQVLDPVPKPVIKIEKIEDMDDNCYLKLSCVIPGESVNYTWYGDKRPFPKELQNSVLETTLMPHNYSRCYTCQVSNSVSSKNGTVCLSPPCTLARS
notes: Comparator; not shown: Fc
B2: human SLAMF6-Fc-NKG2A chimeric protein (Fc fusion)
chain: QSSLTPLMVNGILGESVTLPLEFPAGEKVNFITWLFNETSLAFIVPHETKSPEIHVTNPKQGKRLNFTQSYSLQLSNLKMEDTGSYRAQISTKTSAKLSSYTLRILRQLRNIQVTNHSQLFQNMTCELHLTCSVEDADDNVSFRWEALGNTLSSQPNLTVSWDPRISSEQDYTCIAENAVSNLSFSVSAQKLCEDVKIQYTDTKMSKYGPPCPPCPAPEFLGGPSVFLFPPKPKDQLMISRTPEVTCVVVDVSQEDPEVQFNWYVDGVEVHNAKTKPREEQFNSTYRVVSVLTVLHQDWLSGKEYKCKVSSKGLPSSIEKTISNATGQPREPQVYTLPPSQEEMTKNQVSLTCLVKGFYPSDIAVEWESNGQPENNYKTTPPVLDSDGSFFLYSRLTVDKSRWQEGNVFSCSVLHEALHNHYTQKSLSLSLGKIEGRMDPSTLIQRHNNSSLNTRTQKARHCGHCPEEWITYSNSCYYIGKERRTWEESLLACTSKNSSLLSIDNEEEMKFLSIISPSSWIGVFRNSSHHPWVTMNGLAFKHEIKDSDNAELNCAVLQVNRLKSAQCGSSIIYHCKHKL
notes: also called hSLAMF6-Fc-NKG2A
B3: human TGFBR2-Fc-NKG2A chimeric protein (Fc fusion)
chain: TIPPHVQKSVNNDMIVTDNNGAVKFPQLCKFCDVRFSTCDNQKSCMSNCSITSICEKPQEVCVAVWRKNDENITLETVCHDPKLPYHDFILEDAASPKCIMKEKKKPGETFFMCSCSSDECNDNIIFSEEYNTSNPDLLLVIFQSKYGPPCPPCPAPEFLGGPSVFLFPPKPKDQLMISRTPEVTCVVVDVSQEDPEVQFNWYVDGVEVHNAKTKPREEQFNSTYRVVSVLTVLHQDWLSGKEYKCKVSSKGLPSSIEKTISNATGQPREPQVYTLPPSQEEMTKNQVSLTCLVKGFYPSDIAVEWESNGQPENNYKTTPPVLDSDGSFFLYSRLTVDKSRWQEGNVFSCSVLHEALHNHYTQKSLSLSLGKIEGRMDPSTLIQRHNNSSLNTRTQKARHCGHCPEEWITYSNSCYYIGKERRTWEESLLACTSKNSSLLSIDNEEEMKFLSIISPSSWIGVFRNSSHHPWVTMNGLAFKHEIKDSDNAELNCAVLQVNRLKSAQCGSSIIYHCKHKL
notes: also called hTGFBR2-Fc-NKG2A
B4: human CD58-Fc-NKG2A chimeric protein (Fc fusion)
chain: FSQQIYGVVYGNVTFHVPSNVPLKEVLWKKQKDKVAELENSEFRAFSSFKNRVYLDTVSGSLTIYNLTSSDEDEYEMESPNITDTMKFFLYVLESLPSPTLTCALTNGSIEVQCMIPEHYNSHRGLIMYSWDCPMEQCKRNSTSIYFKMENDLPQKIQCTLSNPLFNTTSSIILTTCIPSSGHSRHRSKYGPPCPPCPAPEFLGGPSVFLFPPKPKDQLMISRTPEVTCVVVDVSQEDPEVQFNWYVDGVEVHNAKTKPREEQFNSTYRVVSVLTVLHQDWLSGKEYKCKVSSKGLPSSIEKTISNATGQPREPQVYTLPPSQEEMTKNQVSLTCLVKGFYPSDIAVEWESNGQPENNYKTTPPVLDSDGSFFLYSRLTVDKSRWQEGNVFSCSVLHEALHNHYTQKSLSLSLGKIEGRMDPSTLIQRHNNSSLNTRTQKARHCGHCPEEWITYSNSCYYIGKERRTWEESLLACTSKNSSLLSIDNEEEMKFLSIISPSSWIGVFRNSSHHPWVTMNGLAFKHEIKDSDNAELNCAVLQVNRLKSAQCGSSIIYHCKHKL
notes: also called hCD58-Fc-NKG2A
B5: recombinant human CD2 protein (rhCD2-His) (receptor, UniProt P06729 25-209, looked up)
chain: KEITNALETWGALGQDINLDIPSFQMSDDIDDIKWEKTSDKKKIAQFRKEKETFKEKDTYKLFKNGTLKIKHLKTDDQDIYKVSIYDTKGKNVLEKIFDLKIQERVSKPKISWTCINTTLTCEVMNGTDPELNLYQDGKHLKLSQRVITHKWTTSLSAKFKCTAGNKVSKESSVEPVSCPEKGLD
notes: also called recombinant CD2 protein; not shown: His tag
B6: recombinant human CD58-Fc fusion protein (rhCD58-Fc) (Fc fusion, UniProt P19256 29-215, looked up)
chain: FSQQIYGVVYGNVTFHVPSNVPLKEVLWKKQKDKVAELENSEFRAFSSFKNRVYLDTVSGSLTIYNLTSSDEDEYEMESPNITDTMKFFLYVLESLPSPTLTCALTNGSIEVQCMIPEHYNSHRGLIMYSWDCPMEQCKRNSTSIYFKMENDLPQKIQCTLSNPLFNTTSSIILTTCIPSSGHSRHR
notes: Positive control; also called recombinant hCD58-Fc protein; not shown: Fc

Tests used:
[1] = molecular target: T1, recombinant human 2B4 protein …; experiment: ELISA: coat rh2B4-His (Sino 10042-H08H), detection Anti-hFc-HRP
Protocol: Increasing amounts of the indicated chimeric proteins or rhCD48-Fc were added and detected using an anti-mFc-HRP (for mCD80-Fc-NKG2A) or anti-hFc-HRP (for rest of the proteins).
CD48 is the ligand for 2B4. To understand whether the CD48 parts of the hCD48-Fc-NKG2A chimeric protein can bind 2B4, ELISA-based assays were performed. Briefly, recombinant human 2B4 protein (rh2B4-His) was coated on plates and increasing amounts of the hCD48-Fc-NKG2A and mCD80-Fc-NKG2A chimeric proteins and recombinant human CD48-Fc (rhCD48-Fc) protein was added to the plates for capture by the plate-bound recombinant 2B4 protein. The hCD48-Fc-NKG2A chimeric protein and recombinant human CD48-Fc (rhCD48-Fc) protein bound to the recombinant 2B4 protein was detected using an anti-human Fc HRP. The mCD80-Fc-NKG2A chimeric protein, which was used as a negative control, bound to the recombinant 2B4 protein was detected using an anti-mouse Fc HRP.

[2] = molecular target: T2, recombinant human SLAMF6-Fc …; experiment: dual ELISA; coat rhSLAMF6-Fc, hSLAMF6-Fc-NKG2a titrated, detection HLA-E-His, Anti-His-6x-HRP; the signal needs both bindings
Protocol: Increasing amounts of the hSLAMF6-Fc-NKG2A chimeric protein was added and detected using HLA-E-His. A chimeric protein comprising ECD of a type II transmembrane protein other than NKG2A was used as a negative control.
To understand whether the hSLAMF6-Fc-NKG2A chimeric protein can binds simultaneously to both hSLAMF6 and HLA-E, the following ELISA experiment was carried out. Briefly, and recombinant hSLAMF6 (rhSLAMF6-Fc) protein was coated on plates. Increasing amounts of the hSLAMF6-Fc-NKG2A chimeric protein was added to the plates for capture by the recombinant human SLAMF6-Fc (rhSLAMF6-Fc) protein. Further, recombinant HLA-E (HLA-E-His) protein was added to the plate for capture by hSLAMF6-Fc-NKG2A chimeric protein. The binding of the HLA-E-His protein was detected using an anti-His 6× HRP antibody.

[3] = molecular target: T4, recombinant HLA-E-His protein (human, UniProt P13747 22-305, limits assumed); experiment: ELISA: the chimeric protein is the titrated coat (1:3), detection HLA-E-His (Novus NBP2-47435PEP), HRP Anti-6x-His-HRP
T4 construct: also called recombinant HLA-E (HLA-E-His); not shown: His tag
Protocol: Similarly, increasing amounts of the hTGFBR2-Fc-NKG2A and hSLAMF6-Fc-NKG2A chimeric proteins chimeric proteins or a negative control protein was coated on plates. Recombinant HLA-E-His protein was added to the plates for capture by the plate-bound chimeric proteins or the negative control protein. The captured HLA-E-His protein was detected using an anti-6×-His-HRP antibody.

[4] = molecular target: T5, anti-human IgG antibody (plate-bound); experiment: ELISA (single sided Fc): coat Anti-Human IgG (H+L) Jax# 109-005-088, detection HRP Goat anti-human FCgamma
T5 construct: also called anti-human Fc antibody
Protocol: Anti-human IgG was coated on plates and increasing amounts of the indicated chimeric proteins were added to the plates. hIgG was used as a positive control, and mCD80-Fc-NKG2A was used as a negative control. The binding was detected using an anti-human Fcgamma HRP.
To understand whether the Fc linkers from the native chimeric proteins can be accessed by anti-human antibodies, ELISA-based assays were performed. For these assays, an anti-human IgG antibody was coated on plates and increasing amounts of the hCD86-Fc-NKG2A and hTGFBR2-Fc-NKG2A, mCD80-Fc-NKG2a chimeric proteins, and a human IgG antibody were added to the plates for capture by the plate-bound anti-human antibody. The human IgG antibody was used as a positive control and to generate a standard curve. The mCD80-Fc-NKG2a chimeric protein was included as a negative control as containing a non-human Fc domain. The protein bound to the anti-human IgG antibody was detected using an anti-human Fcgamma HRP.

[5] = molecular target: T3, hCD2 expressed on CHO-K1/hCD2 cells; experiment: flow cytometry cell binding assay, CHOk1 cells, axis label GEO Mean - PE MFI
[6] = molecular target: T4, recombinant HLA-E-His protein; experiment: ELISA: the chimeric protein is the titrated coat (1:3), detection HLA-E-His (Novus NBP2-47435PEP), HRP Anti-6x-His-HRP; remark: listed apart in the source
Protocol: In a complementary experiment, increasing amounts of the hCD48-Fc-NKG2A, hCD58-Fc-NKG2A, and hCD80-Fc-NKG2A chimeric proteins or a negative control protein was coated on plates. Recombinant HLA-E-His protein was added to the plates for capture by the plate-bound chimeric proteins or the negative control protein. The captured HLA-E-His protein was detected using an anti-6×-His-HRP antibody.

[7] = molecular target: B6; experiment: ELISA: coat rhCD2-His (Acro CD2-H5226), detection Anti-hFc-HRP
Protocol: (§1) Recombinant human CD2 (rhCD2) protein was coated on plates. Increasing amounts of the indicated chimeric proteins or Recombinant human CD58-Fc fusion protein (rhCD58-Fc) were added and detected using an anti-mFc-HRP (for mCD80-Fc-NKG2A) or anti-hFc-HRP (for rest of the proteins).
(§2) CD2 is a transmembrane protein in T cells that binds to its ligand CD58 on APC in humans and on CD48 in rodents. To understand whether the CD48 and CD58 parts of the hCD48-Fc-NKG2A, and hCD58-Fc-NKG2A chimeric protein can bind CD2, ELISA-based assays were performed. Briefly, recombinant human CD2 protein (rhCD2-His) was coated on plates and increasing amounts of the hCD48-Fc-NKG2A, hCD58-Fc-NKG2A, and mCD80-Fc-NKG2A chimeric proteins and recombinant hCD58-Fc protein was added to the plates for capture by the plate-bound recombinant CD2 protein. The […] chimeric protein served as a negative control and recombinant hCD58-Fc protein served as a positive control. The hCD48-Fc-NKG2A and hCD58-Fc-NKG2A, chimeric proteins and recombinant hCD58-Fc protein bound to the recombinant CD2 protein was detected using an anti-human Fc HRP. The mCD80-Fc-NKG2A chimeric protein bound to the recombinant CD2 protein was detected using an anti-mouse Fc HRP.

[8] = molecular target: B5; experiment: as above
Protocol: as §1, §2

T4 sequence (P13747 22-305 limits assumed): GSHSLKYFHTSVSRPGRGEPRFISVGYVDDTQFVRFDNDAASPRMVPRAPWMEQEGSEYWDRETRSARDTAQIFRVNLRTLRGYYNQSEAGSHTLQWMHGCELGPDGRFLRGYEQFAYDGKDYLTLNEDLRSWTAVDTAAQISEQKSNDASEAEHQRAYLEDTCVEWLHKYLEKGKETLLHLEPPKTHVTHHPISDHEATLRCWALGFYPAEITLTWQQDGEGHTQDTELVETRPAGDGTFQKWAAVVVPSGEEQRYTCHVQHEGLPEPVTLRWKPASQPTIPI

B1: binds [1].

With B2 the “EC50 (read off the curve)” value [2] was roughly 30 µg/mL and the “EC50 (read off the curve)” value [3] was roughly 6 µg/mL.

In the case of B3, the “EC50 (read off the curve)” value [4] is reported as roughly 10 µg/mL and the “EC50 (read off the curve)” value [3] is reported as roughly 5 µg/mL.

With B4 the “EC50 (read off the curve)” value [5] was roughly 1 µg/mL and the “EC50 (read off the curve)” value [6] was roughly 0.7 µg/mL.

B5: binds [7].

For B6, the “EC50 (read off the curve)” value [8] was roughly 1 µg/mL.
